B1: EZH2_(172-211) peptide (peptide)
peptide: VELVNALGQYNDDDDDDDGDDPEEREEKQKDLEDHRDDKE
notes: source: synthetic peptide, bought: Biomatik (purified to 95%)
B2: JARID2_(170-194) peptide (peptide)
peptide: PNSMVYFGSSQDEEEVEEEDDETED
notes: as for B1
B3: EED_(128-152) peptide (peptide)
peptide: SQGEIRLLQSYVDADADENFYTCAW
notes: embryonic ectoderm development (EED), residues 128-152; source: synthetic peptide, bought: Biomatik (purified to 95%)
B4: SUZ12_(573-597) peptide (peptide)
peptide: PLRPQEMEVDSEDEKDPEWLREKTI
notes: suppressor of zeste 12 (SUZ12), residues 573-597; source: synthetic peptide, bought: Biomatik (purified to 95%)

Target: T1, survivin (His-tagged, from pHIS8) (human, UniProt O15392 1-142)
T1 construct: survivin, human, residues 1-142 (142 amino acids), called the full-length construct; plasmid pHis8-survivin obtained from the Verdecia lab (doi 10.1038/76838); The tag is detected by the anti-His antibody on the microarray; For NMR the protein was uniformly 15N labelled (M9 medium); For MST one copy was labelled with the GREEN-MALEIMIDE (cysteine reactive) dye; also called survivin_(1-142); …
T1 sequence (O15392 whole entry, the tested form may be a part): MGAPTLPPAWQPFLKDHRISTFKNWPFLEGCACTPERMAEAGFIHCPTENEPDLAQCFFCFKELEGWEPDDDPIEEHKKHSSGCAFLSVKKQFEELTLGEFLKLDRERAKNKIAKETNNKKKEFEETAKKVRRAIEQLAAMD
Experiment: NMR titration; peptides titrated into [U-15N]-survivin (0.3 mM); 2D [15N,1H]-SOFAST-HMQC; NMR buffer (50 mM Tris, 150 mM NaCl, 1 mM DTT, pH 7.5), 298 K; global signal attenuation fitted with a logistic function (critical peptide concentration, cpc)
Conditions: both partners purified

Binder	NMR cpc (critical peptide concentration)
B1	0.0021 µM
B2	0.0085 µM
B3	0.0076 µM
B4	0.0066 µM
